These results are taken from patent publication US20250034601A1, “HETERODIMERIC BENZALDEHYDE SYNTHASE, METHODS OF PRODUCING, AND USES THEREOF” (Purdue Research Foundation, priority 2021, published 2025).

A short description of experiment [1]: Substrate specificity of purified BS with benzoyl-CoA and hydroxycinnamoyl-CoA analogs (GC-MS). The experiment is classed as biochemical. The following applies: 1:1 ratio between α and β subunits, NADPH; cinnamoyl-, para-coumaroyl-, caffeoyl-, feruloyl-, sinapoyl-CoA versus benzoyl-CoA. From the text: The response of internal standard in each run was set as 100%.
To analyze substrate specificity of PhBS, CoA esters were enzymatically synthesized from cinnamic acid, para-coumaric acid, caffeic acid, ferulic acid and sinapic acid using purified recombinant petunia 4-coumarate:CoA ligase (Ph4CL1) purified using the protocols described herein (FIG. 11B; triangle indicates the position of the Ph4CL1 protein). […] The experiment was repeated at least six times with similar results.
To test whether AtBS is involved in the biosynthesis of other aromatic aldehydes, hydroxycinnamoyl-CoA thioesters were incubated with purified AtBS enzyme, and the corresponding aldehyde formation was analyzed. Briefly, GC-MS analysis was performed of the products formed by AtBS from different hydroxycinnamoyl-CoA substrates. […] Shown in FIG. 22 are the combined EICs of mass units 106 (benzaldehyde), 128 (internal standard), 131 (cinnamaldehyde), and 178 (coniferaldehyde).

A short description of experiment [2]: Purified PhBS with short-chain fatty acyl-CoA substrates (GC-MS). The experiment is classed as biochemical. To be noted: 1 mM fatty acyl-CoA, 28° C., 1 hour. The procedure: Given the peroxisomal localization of PhBS, it was also analyzed if purified PhBS could be involved in metabolism of short-chain fatty acyl-CoA esters. […] All reactions were carried out at 28° C. for 1 hour.

Another experiment deals with N. benthamiana leaves. Kind of experiment: Reconstitution of benzaldehyde biosynthetic pathway in N. benthamiana leaves, benzylalcohol formation. The format is in vivo, Nicotiana benthamiana. The following applies: 150 mM Phe feeding for 24 hours, after Viscozyme treatment; means ± SE, n=5. The source says:
In addition, the complete benzaldehyde β-oxidative biosynthetic pathway was reconstituted in N. benthamiana by expressing together with the PhBS four additional genes encoding phenylalanine ammonia lyase 1 (PhPAL1), PhCNL, PhCHD and PhKAT. Klempien et al. (2012), supra; Qualley et al., Completion of the core 0-oxidative pathway of benzoic acid biosynthesis in plants. Proceedings of the National Acad of Sciences of the U.S.A. 109: 16383-16388 (2012); Moerkercke et al., A plant thiolase involved in benzoic acid biosynthesis and volatile benzenoid production, The Plant J. 60: 292-302 (2009).
The coding sequences of PhPAL1, PhCNL, PhCHD, PhKAT, PhBSα (SEQ ID NO: 1) and PhBSβ (SEQ ID NO: 2) were PCR amplified with gene-specific primers (see Table 1 of FIG. 24) from petunia flower cDNAs and cloned into binary vector pCNHP using ClonExpress II One Step Cloning Kit (Vazyme Biotech Co., Piscataway, NJ). After sequence verification, plasmids were transformed into Agrobacterium tumefaciens strain GV3101. Single colonies for each construct were picked and cultured at 28° C. in 3 mL of LB medium supplied with 50 mg/L rifampicin, 50 mg/L gentamycin and 50 mg/L kanamycin to an OD600 of about 2.0. Bacterial cultures were pelleted, washed with a 10 mM MgCl2 solution containing 200 μM acetosyringone, and incubated in the same solution for additional 2 hours at room temperature. […]

B1: PhBS: heterodimeric Petunia hybrida benzaldehyde synthase of PhBSα (SEQ ID NO: 1) and PhBSβ (SEQ ID NO: 2) subunits, 1:1 ratio (protein, listed as Petunia hybrida)
alpha: MEKQTQARFLEPWRDLKGKVVMVTGASSGIGLDLCLDLAKAGCKIIAAARRVDRLKSLCNQINAAADDDDDNNRAVAVELDVSANGDAIEAAVKEAWGAFGRIDALVNNAGVRGTVHSPLELTEEECHNTFRTNLTGTWLVSKYVCKFMRDAKQGGSVINISSIAGLNRGQLPGGLAYVSSKGAVNMVTKVMALELGVDKIRVNSISPGLFKSEITQGLIQKEWLNNVAMRTIPLRTHGNSADPALTSVVRYLIHDSSEYVSGNLFIVDAGATLPGVPIFSSL
beta: MENSGKKVLLTSNGDDICNNIAYHLAQRGCQLVLMGNESQLKSVAEMIKQSLGGSAAVEVVGLDMEEDREAAFEEAVDKAWKIFGKLDALVNCYSYEGKMQDPLQLIEEEFKKIVKINFMAGWYLMKCISKKMRDDKSGGSIVFLTSIIGAERGIYQGAAAYGSCLGGIQQLVRLAAIELGKHQIRVNGISRGLHLQDEYPKAVGLERAEKMTKEAAPLNRWLDVKKDLASTVIYLISDDSRYMTGTSIFVDGAQSLVRPRMRSYM
In the case of B1, the “substrate specificity (aldehyde formation from CoA esters)” value in experiment [1] is reported as “strict substrate selectivity for benzoyl-CoA”. In experiment [2], the “product formed from hexanoyl-CoA” value is “only trace amounts of hexanal were detected”. Moreover, the “benzylalcohol produced in infiltrated leaves” value in the experiment on N. benthamiana leaves was 327.9±14.3 nmol·g FW^−1.
